This is an account of results in paper PMC4386031.

Usually Kd stands for a measure of binding affinity in units of concentration. Higher therefore signals a looser complex.

For this assay, the target named is seven of the nine datasets (monoUb and the diUb types fitted to a one-site binding model). Put plainly: SPR; monoUb and all types of diUb immobilized, NZF1 (or its mutants) binding detected; one-site or two-site binding model; two experiments. A general note: In SPR one partner is held on a chip, and binding of the other changes the refractive index at the surface.

Substance “TRABID NZF1 (aa 1-33) (from UniProt Q9UGI0 1-33) (domain or fragment)” returned a Kd of 190 to 370 µM.
